Experimental findings from patent US20250236663A1 are described below.

For assay [1], the target named is Recombinant human FAM19A5 protein (His-tagged) (human) (UniProt Q7Z5A7). Nature of the assay: ELISA, N'-Term His. Further details: unit not given here.
For assay [2] the target is unchanged. As to the kind of experiment: ELISA, N'-Term His; R² 0.9329. For orientation: In an ELISA, binding on a coated surface is turned into a signal by an enzyme label.
The target is the same in assay [3]. Nature of the assay: OCTET (BLI), His-tagged FAM19A5 on Ni-NTA biosensors, antibody at 1.1-300 nM.
Assay [4] shares this target. As to the kind of experiment: ELISA, N'-Term His; R² 0.9692.
The target is the same in assay [5]. Nature of the assay: two-site sandwich ELISA, capture antibody 13B4; O.D. 0.2 / 0.18 / 0.18 at antigen 100 / 10 / 0 (ng/mL); grey box.
For assay [6] the target is unchanged. Nature of the assay: two-site sandwich ELISA, capture antibody 3-2; O.D. 2.02 / 1.81 / 0.13 at antigen 100 / 10 / 0 (ng/mL); white box.
The target is the same in assay [7]. Nature of the assay: two-site sandwich ELISA, capture antibody 2-13; O.D. 1.83 / 2.04 / 0.29 at antigen 100 / 10 / 0 (ng/mL); white box.
Assay [8] has the same target. Nature of the assay: two-site sandwich ELISA, capture antibody P2-A03; O.D. 0.09 / 0.09 / 0.09 at antigen 100 / 10 / 0 (ng/mL); grey box.
For assay [9] the target is unchanged. Nature of the assay: two-site sandwich ELISA, capture antibody 1-65; O.D. 1.25 / 0.2 / 0.12 at antigen 100 / 10 / 0 (ng/mL); grey box but for the cell of 100.
The target is the same in assay [10]. As to the kind of experiment: ELISA, N'-Term His; R² 0.9105.
Assay [11] has the same target. Nature of the assay: ELISA, N'-Term His; R² -0.2016.
Assay [12] has the same target. Nature of the assay: ELISA, N'-Term His; R² 0.9813.
For assay [13] the target is unchanged. Nature of the assay: ELISA, N'-Term His; R² 0.8823.
For assay [14] the target is unchanged. Nature of the assay: two-site sandwich ELISA, capture antibody 3-2; O.D. 1.7 / 0.3 / 0.13 at antigen 100 / 10 / 0 (ng/mL); white box.
Assay [15] has the same target. Nature of the assay: two-site sandwich ELISA, capture antibody 1-65; O.D. 0.12 / 0.12 / 0.12 at antigen 100 / 10 / 0 (ng/mL); grey box.
For assay [16] the target is unchanged. Nature of the assay: two-site sandwich ELISA, capture antibody 2-13; O.D. 1.92 / 0.65 / 0.21 at antigen 100 / 10 / 0 (ng/mL); white box.
For assay [17] the target is unchanged. As to the kind of experiment: two-site sandwich ELISA, capture antibody P2-A03; O.D. 0.15 / 0.16 / 0.14 at antigen 100 / 10 / 0 (ng/mL); grey box.
For assay [18] the target is unchanged. As to the kind of experiment: two-site sandwich ELISA, capture antibody P2-F11; O.D. 0.14 / 0.16 / 0.15 at antigen 100 / 10 / 0 (ng/mL); grey box.
Assay [19] shares this target. Nature of the assay: ELISA, N'-Term His; R² 0.9746.
Assay [20] has the same target. Nature of the assay: two-site sandwich ELISA, capture antibody 1-65; O.D. 0.16 / 0.15 / 0.15 at antigen 100 / 10 / 0 (ng/mL); grey box.
For assay [21] the target is unchanged. Nature of the assay: two-site sandwich ELISA, capture antibody 13B4; O.D. 0.27 / 0.22 / 0.22 at antigen 100 / 10 / 0 (ng/mL); grey box.
Assay [22] has the same target. Nature of the assay: two-site sandwich ELISA, capture antibody 3-2; O.D. 1.91 / 1.66 / 0.16 at antigen 100 / 10 / 0 (ng/mL); white box.
Assay [23] shares this target. Nature of the assay: two-site sandwich ELISA, capture antibody 2-13; O.D. 1.88 / 1.72 / 0.22 at antigen 100 / 10 / 0 (ng/mL); white box.
For assay [24] the target is unchanged. As to the kind of experiment: two-site sandwich ELISA, capture antibody P2-F11; O.D. 0.15 / 0.15 / 0.14 at antigen 100 / 10 / 0 (ng/mL); grey box.

B1: Anti-FAM19A5 (13F7) (antibody, V domains shown)
VH: QVQLQEWGAGLLKPSETLSLTCAINAESFNGYSWTWIRQTPGKGLEWIGEISHFGSANYNPSLKSRATISADKSKNQFSLKLTSVTAVDTAVYYCARALRGTYSRFYYGMDVWGQGTTVTVSS
VL: DIVMTQTPLSLPVAPGEPASISCRSSQSLLHSNGYNYLDWYVQKPGQPPQLLIYLGSNRASGVPDRFSGSGSGTDFTLKISRVEAEDVGVYYCMQARQTPLTFGGGTKVEIK
As usually defined, the Kd is the equilibrium constant for the complex coming apart. On to B1, for which the Bmax in assay [1] worked out at 3.04. Further, the Kd is 2.77 nM in [2] and 0.25 nM in assay [3].

B2: Anti-FAM19A5 (P2-F07) (antibody, V domains shown)
VH: QSLEESGGRLVTPGTPLTLTCTASGFSLSSYYMNWVRQAPGKGLEWIGIIYPSGTTYYAGWAKGRFTISKTSTTVDLKITSPTSEDTATYFCARTVSGYFDIWGPGTLVTVSL
VL: ELDLTQTPPSLSASVGGTVTINCLASEDIYSALAWYQQKPGKPPTLLISGTSNLESGVPPRFSGSGSGTDYTLTIGGVQAEDAATYFCQGYSSYPLTFGAGTNVEIK
For the molecule B2, in [1], the Bmax was found to be 0.134.

B3: Anti-FAM19A5 (P2-F11) (antibody, V domains shown)
VH: QEQLVESGGRLVTPGTTLTLTCTVSGFSLSSYGVSWVRQAPGKGLEWIGYIANNYNPHYASWAKGRFTISKTSSTTVDLKMTSLTTEDTATYFCARDNYGMDPWGPGTLVTVSS
VL: ELDLTQTPSSVSAAVGGTVTINCQASQSVYNNKNLAWYQQKPGQPPKLLIYAASTLASGVSSRFKGSGSGTQFTLTISDVQCDDAATYYCQGEFSCSSADCNAFGGGTELEIL
For the molecule B3, the Bmax in [1] stood at 3.26. In addition, the Kd in [4] turned out to be 0.41 nM. The S/N was found to be 1 in assay [5]; 13.9 in assay [6]; 7 in assay [7]; 1 in assay [8]; 1.7 in assay [9].

B4: Anti-FAM19A5 (P2-A01) (antibody, V domains shown)
VH: QEQLVESGGRLVTPGTPLTLSCTASGFFLSGYYMSWVRQAPGKGLEWIGIIYPSGSTDYASWAKGRFTISKTSTTVDLKITTPTTEDTATYFCARVAGYVGYGYETFFDIWGPGTLVTVSL
VL: ELVMTQTPPSLSASVGETVRIRCLASEDIYSGISWYQQKPGKPPTLLIYGASNLESGVPPRFSGSGSGSDYTLTIGGVQAEDAATYYCLGGVTYSSTGTHLTFGAGTNVEIK
Take B4: the Bmax in assay [1] came to 1.19. Moreover, the equilibrium dissociation constant (Kd) in assay [10] amounted to 9.09 nM.

B5: Anti-FAM19A5 (P1-F02) (antibody, V domains shown)
VH: QSLEESGGRLVTPGTPLTLTCTASGFSLSNYYMGWVRQAPGEGLEWIGIIYASGSTYYASWAKGRFTISKTSTTVDLKMTSLTTEDTATYFCARIDIGVGDYGWAYDRLDLWGQGTLVTVSS
VL: ELDMTQTPPSLSASVGETVRIRCLASEDIYSGISWYQQKPGKPPTLLIYGASNLESGVPPRFSGSGSGTDYTLTIGGVQAEDAATYYCLGGYSYSSITFGAGTNVEIK
Consider B5, for which the Bmax in assay [1] was found to be 0.172.

B6: Anti-FAM19A5 (P1-A08) (antibody, V domains shown)
VH: QSLEESGGRLVTPGTPLTLTCTASGFSLSTYYMSWVRQAPGKGLEWIGIVYPSGTTYYANWAKGRFTISTASTTVDLMITSPTTEDTATYFCARGDSFGYGLWGPGTLVTVSS
VL: ELVLTQSPSVQVNLGQTVSLTCTADTLSRSYASWYQQKPGQAPVLLIYRDTSRPSGVPDRFSGSSSGNTATLTISGAQAGDEADYYCATSDGSGSNYQYVFGGGTQLTVT
In the case of B6, the Bmax in [1] amounted to 0.479. Besides, the equilibrium dissociation constant (Kd) in [11] came out at 6.95 nM.

B7: P1-A03 (antibody, V domains shown)
VH: QSVEESGGRLVTPGTPLTLTCTVSGFSLSSDYMSWVRQAPGEGLEWIGIIYPSTTTYYASWAKGRFTISKTSSTTVELKMTSLTTEDTATYFCARGSNWSSGMNLWGPGTLVTVSS
VL: ELVMTQTPPSLSASVGETVRIRCLASEDIYSGISWYQQKPEKPPTLLISGASNLESGVPPRFSGSGSGTDYTLTIGGVQAEDAATYYCLGGYSYSSTGLTFGAGTNVEIK
For B7, the Bmax in assay [1] was determined as 2.45. In addition, the dissociation constant Kd in [12] was 7.5 nM.

B8: Anti-FAM19A5 (13B4) (antibody, V domains shown)
VH: QVQLQESGPGLVKPSGTLSLNCAVSGGSISSSNWWSWVRQPPGKGLEWIGEIYHGGTTNYNPSLKGRVTMSVDKTKNQFSLRLSSVTAVDTAVYYCARWQLVGGLDVWGQGTTVTVSS
VL: SYELTQPLSVSVSPGQTASITCSGDKLGNVYASWYQQKPGQSPTLVIYQDNKRPSGIPERFSGSNSGKTATLTISGTQALDEADYYCQAWDSSTAVFGGGTKLTVL
For the molecule B8, in assay [1], the Bmax turned out to be 2.84. In addition, the Kd in assay [13] is 1.06 nM; in assay [3], 3.6 nM. Also, the S/N in assay [14] worked out at 2.3; in assay [15] it was 1; in assay [16] it was 3.1; in assay [17], 1.1; in assay [18], 1.1.

B9: Anti-FAM19A5 (15A9) (antibody, V domains shown)
VH: QVQLQESGPGLVKPSETLSLTCTVSGGSISSYYWSWIRQPPGKGLEWIGYIYPSGSTNYNPSLKSRVTISVDTSKNQFSLNLKSVTAVDTAVYYCARVNPFGYYYAMDVWGQGTTVTVSS
VL: DIQMTQSPSSLSASVGDRITISCRASQSISTSLNWYQQTPGKAPRLLIYGASTLQSGVPSRFSGGGSGTDFSLTITSLQPEDFATYYCQESASIPRTFGQGTKLDIK
Take B9: in assay [3], the equilibrium dissociation constant (Kd) was 5.95 nM.

B10: Anti-FAM19A5 (P2-A03) (antibody, V domains shown)
VH: QSVEESGGRLVTPGTPLTLTCTVSGFSLNNYDMSWVRQAPGKGLEYIGFMDTDGSAYYATWAKGRFTISRTSTTVDLKMTSPTTEDTATYFCARRGSSYYGGIDIWGPGTPVTVSL
VL: ELDLTQTPASVSEPVGGTVTIKCQASQSIGGNLAWYQQKPGQPPKLLIYRASTLASGVPSRFKGSGSGTDFTLTISDLECADAATYYCQSPAYDPAAYVGNAFGGGTELEIL
As to B10, in assay [1], the Bmax is 3.37. In addition, the dissociation constant (Kd) in assay [19] was 0.61 nM. Besides, the S/N was 1 in assay [20]; 1 in assay [21]; 10 in assay [22]; 7.8 in [23]; 1.1 in assay [24].
